{"source": "patent US20250313611A1", "about": "(VIB VZW, published 2025)", "binders": {"B1": {"name": "VHH R3_DC23 (VHH)", "VHH": "QVQLQESGGGLVQAGDSLTLSCAVSGRIFSTYTMGWFRQAPGKEREFVAAVRWGAGTIYYADSMKGRFTISRDSAKNTVDLQMNSTKPEDTAVYYCGAAYVSKANYGSLWYQDSRRYDYWGQGTQVTVSS"}, "B2": {"name": "VHH R4_DC6 (VHH)", "VHH": "QVQLQESGGGLVQAGDSLRLSCAASGRILSTFTMGWFRQAPGKEREFVAAMRWNGGTKNYADSVKGRFTISRDNANSVVYLQMNSTKPEDTAVYYCAAAYVSKANYGSLWYRTPSLYDYWGQGTQVTVSS"}, "B3": {"name": "VHH R3_C4 (VHH)", "VHH": "QVQLQESGGGLVQAGDSLRLSCAVSGRPFSTYTMGWFRQAPGKEREFVAAMRWSGGTIYYADSVKGRFTISRDNDKNTVNLEMNSLKPEDTAVYYCAAAYVSKANYGSLWYRASGLYDYWGQGTQVTVSS"}, "B4": {"name": "VHH R4_DC16 (VHH)", "VHH": "QVQLQESGGGLVQAGDSLRLSCAVSGRPFSTYTMGWFRQAPGKEREFVAAMRWSGGTIYYADSVKGRFTISRDNAQNTVNLQMNSLKPEDTAVYYCAAAYVSKANYGSSWYRNSGLYDYWGQGTQVTVSS"}, "B5": {"name": "VHH R3_DC9 (VHH)", "VHH": "QVQLQESGGGLVQTGDSLRLSCAVSGRPFSTYTMGWFRQAPGKEREFVASMRWSGGTMYYSDSVKGRFTISRDNDKNTVNLQMNSLKPEDTAVYYCAAAYVSKANYGSLWYRNSGLYDYWGQGTQVTVSS"}, "B6": {"name": "VHH R4_DC20 (VHH)", "VHH": "QVQLQESGGGLVQTGDSLRLSCAVSGRPFSTYTMGWFRQAPGKEREFVASMRWSGGTMNYADSVKGRFTISRDNDQNTVNLQMNSLKPEDTAVYYCAAAYVSKANYGSLWYRNSGLYDYWGQGTQVTVSS"}, "B7": {"name": "VHH R4_DC9 (VHH)", "VHH": "QVQLQESGGGLVQAGDSLRLSCAASGRIFSTYTMGWFRQAPGMEREFVAAIRWSGSTVYYADSVKGRFTISRDNAKNTVYLQMNSLKPEDTAVYYCAAARVSKANYGTLWYRASGLYDYWGQGTQVTVSS"}, "B8": {"name": "VHH R4_DC13 (VHH)", "VHH": "QVQLQESGGGLVQTGDSLRLSCAVSGRPFSTYTMGWFRQAPGKEREFVASMRWSGGTVYYSDSVKGRFTISRDNDKNTVNLQMNNLKPEDTAVYYCAAAYVSKANYGSFWYRNSDLYDYWGQGTQVTVSS"}, "B9": {"name": "VHH R3_DC20 (VHH)", "VHH": "QVQLQESGGGLVQAGDSLRLSCAVSGRPFSTYTMGWFRQAPGKEREFVAAMRWSGGTIYYADSVKGRFTISRDNAQNTVNLQMNSLEPEDTAVYYCAAAYVSKANYGSLWYRNSGLYDYWGQGTQVTVSS"}, "B10": {"name": "VHH R3_DC2 (VHH)", "VHH": "QVQLQESGGGLVQTGDSLRLSCAVSGRPFSTYTMGWFRQAPGKEREFVASMRWSGGTKYYSDSVKGRFSISRDNDQNTVNLQMNSLKPEDTAVYYCAAAYVSKANYGSLWYRNSGLYDYWGQGTQVTVSS"}, "B11": {"name": "R3_DC23-Fc(YTE) (Fc fusion)", "chain": "DVQLVESGGGLVQPGGSLRLSCAVSGRIFSTYTMGWFRQAPGKEREFVAAVRWGAGTIYYADSVKGRFTISRDNAKNTVYLQMNSLRPEDTAVYYCGAAYVSKANYGSLWYQDSRRYDYWGQGTLVTVSSGGGGSGGGGSDKTHTCPPCPAPELLGGPSVFLFPPKPKDTLYITREPEVTCVVVDVSHEDPEVKFNWYVDGVEVHNAKTKPREEQYNSTYRVVSVLTVLHQDWLNGKEYKCKVSNKALPAPIEKTISKAKGQPREPQVYTLPPSRDELTKNQVSLTCLVKGFYPSDIAVEWESNGQPENNYKTTPPVLDSDGSFFLYSKLTVDKSRWQQGNVFSCSVMHEALHNHYTQKSLSLSPG"}}, "key": {"[1]": {"target": "T1, SARS-COV-2 spike (614G-del18) (SARS-CoV-2, UniProt P0DTC2 14-1255)"}, "[2]": {"target": "T1, SARS-COV-2 spike (614G-del18)", "experiment": "cell-based or functional assay"}, "[3]": {"target": "SARS-COV-2 spike protein (Wuhan) expressed on transfected cells (SARS-CoV-2 (Wuhan), UniProt P0DTC2 14-1273)"}, "[4]": {"target": "T1, SARS-COV-2 spike (614G-del18)", "experiment": "flow cytometry, transfected HEK cells, MFI GFP+/GFP- cells [1/3]"}, "[5]": {"target": "T1, SARS-COV-2 spike (614G-del18)", "experiment": "flow cytometry, transfected HEK cells, MFI GFP+/GFP- cells [3/3]"}, "[6]": {"target": "T1, SARS-COV-2 spike (614G-del18)", "experiment": "flow cytometry, transfected HEK cells, MFI GFP+/GFP- cells [2/3]"}, "[7]": {"target": "T1, SARS-COV-2 spike (614G-del18)", "remark": "listed apart in the source"}, "[8]": {"target": "SARS-COV-2 Omicron BQ.1.1 spike (pCG1, del18) (SARS-CoV-2 Omicron BQ.1.1, UniProt P0DTC2 14-1255)", "experiment": "cell-based or functional assay"}, "[9]": {"target": "SARS-COV-2 Omicron XBB spike (pCG1, del18) (SARS-CoV-2 Omicron XBB, UniProt P0DTC2 14-1255)", "experiment": "cell-based or functional assay"}, "[10]": {"target": "SARS-COV-2 Omicron BA.2.75 spike (pCG1, del18) (SARS-CoV-2 Omicron BA.2.75, UniProt P0DTC2 14-1255)", "experiment": "cell-based or functional assay"}, "[11]": {"target": "SARS-COV-2 Omicron BA.4.6 spike (pCG1, del18) (SARS-CoV-2 Omicron BA.4.6, UniProt P0DTC2 14-1255)", "experiment": "cell-based or functional assay"}, "[12]": {"target": "SARS-COV-2 Omicron BA.1 spike (pCG1, del18) (SARS-CoV-2 Omicron BA.1, UniProt P0DTC2 14-1255)", "experiment": "cell-based or functional assay"}, "[13]": {"target": "SARS-COV-2 Omicron BA.2 spike (pCG1, del18) (SARS-CoV-2 Omicron BA.2, UniProt P0DTC2 14-1255)", "experiment": "cell-based or functional assay"}}, "note": "Where “and” joins values, the source holds several entries; their conditions need not be identical. Equal entries are not always repeated. Where two headings read alike, the source gives them in different places."}
{"binder": "B1", "values": [{"measurement": "EC50 (read off the curve)", "setting": "[1]", "result": "~10", "unit": "ng/mL"}, {"measurement": "IC50, neutralisation of VSV pseudotyped with spike, Vero E6 cells", "setting": "[2]", "result": "< 1", "unit": "ng/mL"}, {"measurement": "IC50, neutralisation of VSV spike pseudotypes", "setting": "[2]", "result": "1.2 ng/ml and 80 µM and ~1 ng/ml"}, {"measurement": "EC50 (read off the curve)", "setting": "[3]", "result": "~0.01", "unit": "µg/mL"}]}
{"binder": "B2", "values": [{"measurement": "EC50 (read off the curve)", "setting": "[1]", "result": "~2", "unit": "ng/mL"}]}
{"binder": "B3", "values": [{"measurement": "binding result", "setting": "[4]", "result": "binds"}]}
{"binder": "B4", "values": [{"measurement": "binding result", "setting": "[5]", "result": "binds"}]}
{"binder": "B5", "values": [{"measurement": "binding result", "setting": "[4]", "result": "binds"}]}
{"binder": "B6", "values": [{"measurement": "binding result", "setting": "[5]", "result": "binds"}]}
{"binder": "B7", "values": [{"measurement": "IC50, neutralisation of VSV pseudotyped with spike, Vero E6 cells", "setting": "[2]", "result": "~100", "unit": "ng/mL"}, {"measurement": "IC50, neutralisation of VSV spike pseudotypes", "setting": "[2]", "result": "68.9 ng/ml and 4680 µM"}]}
{"binder": "B8", "values": [{"measurement": "binding result", "setting": "[6]", "result": "binds"}]}
{"binder": "B9", "values": [{"measurement": "binding result", "setting": "[4]", "result": "binds"}]}
{"binder": "B10", "values": [{"measurement": "binding result", "setting": "[4]", "result": "binds"}]}
{"binder": "B11", "values": [{"measurement": "EC50 (read off the curve)", "setting": "[7]", "result": "~0.1", "unit": "µg/mL"}, {"measurement": "IC50, neutralisation of VSV pseudotyped with spike", "setting": "[8]", "result": "~1", "unit": "ng/mL"}, {"measurement": "IC50, neutralisation of VSV pseudotyped with spike", "setting": "[9]", "result": "~1", "unit": "ng/mL"}, {"measurement": "IC50, neutralisation of VSV pseudotyped with spike", "setting": "[10]", "result": "~1", "unit": "ng/mL"}, {"measurement": "EC50, neutralisation of VSV pseudotyped with spike", "setting": "[2]", "result": 1, "unit": "ng/mL"}, {"measurement": "IC50, neutralisation of VSV pseudotyped with spike", "setting": "[11]", "result": "~1", "unit": "ng/mL"}, {"measurement": "EC50, neutralisation of VSV pseudotyped with spike", "setting": "[12]", "result": 1, "unit": "ng/mL"}, {"measurement": "IC50, neutralisation of VSV pseudotyped with spike", "setting": "[12]", "result": "~1", "unit": "ng/mL"}, {"measurement": "EC50, neutralisation of VSV pseudotyped with spike", "setting": "[13]", "result": 0.35, "unit": "ng/mL"}, {"measurement": "IC50, neutralisation of VSV pseudotyped with spike", "setting": "[13]", "result": "~1", "unit": "ng/mL"}]}
